Assay results published in the DeepSol protein solubility set.

Assay: soluble on expression in E. coli; label from the status in PepcDB or PDB records

Sequence	soluble on expression in E. coli
MVRGVFVGLFSKKQSVLVGVDISSTAVKLLQLSRSGNRFKVEHYAVEPLPLNAVAEKGIVEVEQVGEAIRRAVSRSGTKAKFAAAAVAGSAVITKLIPMPAGLDEQDLEAQIEIEATNYIPYPIEEVSLDFEVLGPVPNNTEMVQVLLAASRSENVELRQSALELGGLTAKVIDVEALAVENAFSLIAQELSVGSNALVALIDIGATMSTLNVLHSGRSLYAREQLFGGKQLTDEVMHRYGMTYEEAGQAKRQGGLPQSYEVEVLGPFKDSVIQQISRLLQFFYAGSEYNRVDCIVLAGGCAVIAGLPAMVEERLGVVTVVANPLAQMTLGAKVQAHTLAQDAPALMIATGLALRSFD	not soluble
MVRLEDYGTWDEALKRLEASRKALLALLREADPAWLSAPLREGAWTPLMVAEHVALVEDSTARVLRRLRRLAAGENLPPVPVKPGEFKDGKPQAPEGVRPKGGLSLEEVLALLDRARAFLLEEVAKADPQNPATFPHPFFGELNPLGWLRAAAYHEAHHLKALQASLPR	soluble
MVSAGGVVLKGDPPEVLVVSLRGGRVVTLPKGQVEPGERYPETAVREVREETGVEASVLAPLGRVRYYFTVHEPEGPVTVSKEVHYFLMRHLGGTPRPQLTEVEDAFFLPASEALERLSYPNEREMLKRALLRLRARAKKG	soluble
MVSLPVVLIADKLAPSTVAALGDQVEVRWVDGPDRDKLLAAVPEADALLVRSATTVDAEVLAAAPKLKIVARAGVGLDNVDVDAATARGVLVVNAPTSNIHSAAEHALALLLAASRQIPAADASLREHTWKRSSFSGTEIFGKTVGVVGLGRIGQLVAQRIAAFGAYVVAYDPYVSPARAAQLGIELLSLDDLLARADFISVHLPKTPETAGLIDKEALAKTKPGVIIVNAARGGLVDEAALADAITGGHVRAAGLDVFATEPCTDSPLFELAQVVVTPHLGASTAEAQDRAGTDVAESVRLALAGEFVPDAVNVGGGVVNEEVAPWLDLVRKLGVLAGVLSDELPVSLSVQVRGELAAEEVEVLRLSALRGLFSAVIEDAVTFVNAPALAAERGVTAEICKASESPNHRSVVDVRAVGADGSVVTVSGTLYGPQLSQKIVQINGRHFDLRAQGINLIIHYVDRPGALGKIGTLLGTAGVNIQAAQLSEDAEGPGATILLRLDQDVPDDVRTAIAAAVDAYKLEVVDLS	soluble
MVTKTITEQRAEVRIFAGNDPAHTATGSSGISSPTPALTPLMLDEATGKLVVWDGQKAGSAVGILVLPLEGTETALTYYKSGTFATEAIHWPESVDEHKKANAFAGSALSHAALP	soluble
MVTNKLITLLPDLATFIVVVNEGSFTAAAKKLGVTPSALSKLITRLENALSVKLFERTTRSLLITESGKKIYQQSVIMVEAAQQAVDISSSEHTVPSGSLTVAAPKAFLTIVLQPLITPFLTKYPKIQLKLRASDGDIDMIAQGIDVVFRLTDKPTEGLVMKEIGKVNLSLCASPTYLEERGIPHLPQELANHDCLFLGETTTDHIWEFVKGTESHVIAVSGRYAVNHSQMRLNGVKDGFGIGIFPDFVIKEALANNEVISVLSDWQIKGNYHGVIAMQYAQNKYIPSRLKVFTEFVKENLMKSKVNDERT	not soluble
MVVGGFGVGKTTLVRSVSEIRPLSTEETMTRAGETVDDISEVRGKSATTVAFDFGRISLDTRNILYLFGAPGQERFWFLWDRLFAGTLGAVVLVDTRRIDDSWYAIDRLERHGTPFIVACNDFGGPAHTPEQIREALDLDPHVPLIDCDARSRESSKRVLITLVEHLKSLYVPRAPELALLEHHHHHH	not soluble
MVVVEQIKSQKIHGCQILETVYKHSCGGLPPVRSALEKILAVCHGVMYKQLSAWMLHGLLLDQHEEFFIKQGPSSGNVSAQPEEDEEDLGIGGLTGKQLRELQDLRLIEEENMLAPSLKQFSLRVEILPSYIPVRVAEKILFVGESVQMFENQNVNLTRKGSILKNQEDTFAAELHRLKQQPLFSLVDFEQVVDRIRSTVAEHLWKLMVEESDLLGQLKIIKDFYLLGRGELFQAFIDTAQHMLKTPPTAVTEHDVNVAFQQSAHKVLLDDDNLLPLLHLTIEYHGKEHKADATQAREGPSRETSPREAPASGWAALGLSYKVQWPLHILFTPAVLEKNRQF	soluble
MVYNVLLSLPMMIQARWELLALLLGSGLIKQMDEVIFKEIMACASDQDLAARCSSVMLQISSNSDTCDKTAAIIFKGLTSPVAAVRSNVHRSWLCRIITLKNSQKCVETLLKLCKKSIKTTGNCSKILPISFRELPGLTCVDLQWRAILDEEPGDFSAFCYFSVLLSLKNASSQVHIQIPANDEFVLAELRNSGSLDVLKVCSKYKIYPEPLENWILEHFSPEMMEYIDFSMLKTFSAGFSQVFEEKKLEICQEKLEKFYPAEDLGRLNVHVDLSKEKLANETLEQFLQIQHESEEYPSVAGVMENLSKQNIDERLFCQKICLINDIMHEKYSILKEIRREMYTEFIFKIITRIPLRSVVDYVGATLKTEALQNPDFKNQIYQMSCQLLRLDKENARPLSLYHCFIGTCQQQDTTARISEIWAIIRGLKCDVKKRKMTEMLAKVVTSSEIQIDPSLLSDMTICSLGLHPTRFNTESTQLFVASISKLLDFRNESERIMLFQATANTPTLMDLISSILSRPSTDFSISGFQMILYFFTRFHIGSMEFYPYNHLLIITKIINFCHWSIRKFAKEPMILSISVDAICGFLPWSYLSEIALNGLEVENDPVEQLIAQNLKHNRFCVLLAEHDKQDTYLTIEDFEKLPKSEFIVEILRKKDAGNDSLNDLGQKLREITGKSMNFEEKHANLLACGILFEKSVEIMENAEKSKDLGQKWKNQYPPRGFLDNLMESFAATNSCINPEEIQNWWLEKCLGMMEIVRKKIIDFY	not soluble
MVYSKTFRVEEKSITVSARGTIGVVFYRDFAYLPAVSLICFVPKEEFDIRFLFHALRAIKFKKQGSATGQLTVAQFKEYGIHVPSLKKQKEIAAILDPLYSFFTDLNEGLPAEIELRKKQLDYYQNFLFNWIQKQKELVEQASTN	soluble
MWEVIIMKTYIGKIHLKWCKNCNVPLLGRVCEVCGSKAEEVKLTPPGDPRLGFQYDMDFINKILEEEFGAKNVLNGKIILLNKIPGNEEAYEIIVDGEVKYLIYFDEDKEKWKVKLKLNGAKDLMEKGAYKKIIKIKNDVVEFLKNRKGSVLRPGIVEFTDDIEEKDDVIIVDENDRVVGVGLAVVSSEDIKNMEKGKVVKVRFFIKDNEDYKPGKIYDNLEEAFDLMVRANEGVIDNYERNAIGFIKNTYEKIKKPVMVAFSGGKDSLVTLILTLKALGKDIDVVFIDTGLEFEETLKNVEDVERHYGIKIIRLRGENFWEKVKEYGIPARDYRWCSEICKLEPLKKFIEENYEDDVLSFVGIRKYESFNRATKKRIHRNTYIKKQINALPIFHWSSLHVWIYLLREKAPYNKLYEKGFDRIGCFMCPAMEMGEMNKIKREFPKLWEKWENVLREYAEKHNLGEGWIKKGLWRWKHKRQ	soluble
MWITTTPWSKHSPNWVLADNGEKLIVPEIILGDAQGPTRNEWYIGLSSVLGFSFWSPDYDGVGTWLDAATQLNEQGGGDVITYSSGAHIVRTLLLAASQSNVHSTFTSKALGNDQTSSMTSSTTAVTVAKSGDGQQQTGEQKEEDWKDISKADLFKDDPYVLKNFGDSTTQAKMQSGGSTNSNGNGSQASLAFTKKALSLLKFLVDNKILKKDKVKEAIMNPDQYLSKRSKLDSNNQKPTKDDFIGSEFKDLYENAAKLNRFNSIWAEKDTDNAKFLITVVDSYFPVLPVPAAGLNETSPTLLKPWFQFRSAPSGNGTIRDYGFIPENK	soluble
MWKWEAENDAKGVVVIAHNILEHTGRYAYVITMLRRNGYHVIMGDLPGQGQTSRANKGQIENFQTYHESLLDWLKIANEYKIPTYVLGVGLGGLILLNLLEKVELPIEGMMLISPMLELQKNGKNRKDKLVSNIGKISKDTRFNVGVEPKDLTRNLEIVEETVNDGLMLKKATYHWYNTINETMKDTMAHIHDIQPMPTLLMYGTKDLIVDTRAIDEFKEKYQTPELYFKAWQGFYHEVHNEPERDEVMRYILTFLNNSVN	not soluble
MWLTKLVLNPASRAARRDLANPYEMHRTLSKAVSRALEEGRERLLWRLEPARGLEPPVVLVQTLTEPDWSVLDEGYAQVFPPKPFHPALKPGQRLRFRLRANPAKRLAATGKRVALKTPAEKVAWLERRLEEGGFRLLEGERGPWVQILQDTFLEVRRKKDGEEAGKLLQVQAVLFEGRLEVVDPERALATLRRGVGPGKALGLGLLSVAP	soluble
MWQAIAKQISEVTQQPFSISERESVNGGEINDCYMISNGSQRYFVKINEKAELPIFETEIESLTQLDKSDHIFVPSPIHIGTTKEHSFLVLNYLPTKSMDKDAFYELGVSLANHHLWGDQLEYGFDCDNYLGNVLQVNTWHRRWDCFFAEQRIGWQLQLLKEKGMVLGDIDTLVKNSKLILHNHQPKPALLHGDLWHGNIALSVKGPISYDPASYWGDAECDLAMVELFGGIQDSFFEGYESISSISEGFETRQHLYSLYHVLNHCNMFGGEYMFHAQQLIDKLNLNELEHHHHHH	not soluble
MWYTGTGDKGKTKVPSVGEVWKDSEIVKALGDLDELNSVLGVVSSLYPELSEVIQKLQNDIFSISSEIAGFDMNFSDEKVKGIEELITNYSKELEPLRNFVLPGGHIASSFLHLARAVCRRAERSVVTLLKESKAKEVHAKYLNRLSSLLFVLALVVNKRTNNPNVIWRGKD	soluble
MYELNICHLYPDLLNLYGDRGNIMALKMRCVWRGINVNVSNISIGDKFDAEAYDIIFLGGGQDYEQEIIQDDLLNQKGEEIRNAVKNDKVFLAICGGYQLLGSYYKTWDGKEIHFLNALDLWTIGGKERMIGNFVFECDFLKNDHYDGKIVGFENHSGRTYLGPGVKPLGKIIKGYGNNGEDGFEGAIYKNVYCSYSHGSLLPKNPALADHLISVALKQKYKDFVSLSGIDDEFENLAHDTTIKRIMG	soluble
MYETIVSSRGSSFFVSQGKTGEQVYRCQVNREQCPNTLPIDKHIDLVRKYIRAFLYRFAGMTSLNETSSRRMIFLVVPSFCVIEIIP	not soluble
MYKAVVFDFDGTVIDTEKHLFDLINTHLKIHQVAPISLEFYKQFIGGEATELHTYLEDAIGFKNKEKIYDQYYQTSVELPVNSTIIQLMQYLKKRHIPMAITTSSYKKNIYPIFKQLGLDTYIDVVVGRENVDSVQPNPEIYLKAVQELNYNPTTCLAIEDSVNGATAAMLAGLDVVVNTNIITKDQDFSTVQCVGQDMEFEDIKNSLFKE	not soluble
MYKDYPAAYQVSKGAALQVDTAFYERLRANAQQRTLVEQFEVPIRTGRAWKVKAGQVFRVTTPAGPQVGDFNVWNAHDPRERLWAARTRQLQGAHVSTHDRLWSNLPFLRPLVTITDDSLASYGIDEHGGRLHDLLGTRCDPYVKKMLTGEDFHHHCHSNLTRAVLPHGLTEFDVHDVLNIFQCTGLNHDDMYFMKACPAQKGDYLEFFAEIDLLCALSTCPGGDLSLPMWGPDAQDPLSVCRPLGVEIYNLDAALLEGWQSPERAAYNGLHGLQIAKVDWEKLEHHHHHH	not soluble
MYKVDSPDAVDFINHQEIIETLEYARTHRNDRELIRNLIEKARLCKGLTHREAAILLECAEEDLTKEIFHLAKEIKQKFYGNRIVMFAPLYLSNYCVNGCVYCPYHLKNKTIIRKKLTQEEICREVIALQDMGHKRLALEAGEDPVRNSIDYILESIRTIYSIHHKNGAIRRVNVNIAATTVENYRKLKDAGIGTYILFQETYHKENYEQLHPTGPKSNYAYHTEAMDRAMQGGIDDVGMGVLFGLNTYRYDFVGLLMHAEHLEAVYGVGPHTISVPRICSADDINAEDFENAISDEIFQKIVAVIRISVPYTGMIISTRESQKTREKVLDLGISQISGGSRTSVGGYAEAETPEENSAQFDVSDTRTLDEVVNWLLKLGYIPSFCTACYRAGRTGDRFMSLVKSGQIANCCSPNALITLQEYLEDYASEETKARGVAMIKQEMQHIPNPKIRERALENLKQIAAGERDFRF	not soluble
